Measurements: paper PMC12170906

Molecular target: RNAP-SigA holoenzyme (Mycobacterium tuberculosis, UniProt P9WGZ1;P9WGY9;P9WGY7;P9WGI1 1-347;1-1178;1-1316;1-528)
Test: EMSA
Settings: protein: recombinant; chain copies: 2;1;1;1; blunt

Chain of RNAP-SigA holoenzyme (P9WGZ1 whole entry, chain 1 of 4): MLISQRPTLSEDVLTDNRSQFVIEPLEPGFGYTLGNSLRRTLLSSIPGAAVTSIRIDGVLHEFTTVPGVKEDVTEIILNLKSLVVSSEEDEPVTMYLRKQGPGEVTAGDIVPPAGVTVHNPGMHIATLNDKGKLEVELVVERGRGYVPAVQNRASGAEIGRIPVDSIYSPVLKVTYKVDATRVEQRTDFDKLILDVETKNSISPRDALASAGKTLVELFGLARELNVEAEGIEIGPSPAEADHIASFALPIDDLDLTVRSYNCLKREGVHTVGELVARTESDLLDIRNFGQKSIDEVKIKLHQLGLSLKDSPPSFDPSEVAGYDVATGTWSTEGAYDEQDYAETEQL
Chain of RNAP-SigA holoenzyme (P9WGY9 whole entry, chain 2 of 4): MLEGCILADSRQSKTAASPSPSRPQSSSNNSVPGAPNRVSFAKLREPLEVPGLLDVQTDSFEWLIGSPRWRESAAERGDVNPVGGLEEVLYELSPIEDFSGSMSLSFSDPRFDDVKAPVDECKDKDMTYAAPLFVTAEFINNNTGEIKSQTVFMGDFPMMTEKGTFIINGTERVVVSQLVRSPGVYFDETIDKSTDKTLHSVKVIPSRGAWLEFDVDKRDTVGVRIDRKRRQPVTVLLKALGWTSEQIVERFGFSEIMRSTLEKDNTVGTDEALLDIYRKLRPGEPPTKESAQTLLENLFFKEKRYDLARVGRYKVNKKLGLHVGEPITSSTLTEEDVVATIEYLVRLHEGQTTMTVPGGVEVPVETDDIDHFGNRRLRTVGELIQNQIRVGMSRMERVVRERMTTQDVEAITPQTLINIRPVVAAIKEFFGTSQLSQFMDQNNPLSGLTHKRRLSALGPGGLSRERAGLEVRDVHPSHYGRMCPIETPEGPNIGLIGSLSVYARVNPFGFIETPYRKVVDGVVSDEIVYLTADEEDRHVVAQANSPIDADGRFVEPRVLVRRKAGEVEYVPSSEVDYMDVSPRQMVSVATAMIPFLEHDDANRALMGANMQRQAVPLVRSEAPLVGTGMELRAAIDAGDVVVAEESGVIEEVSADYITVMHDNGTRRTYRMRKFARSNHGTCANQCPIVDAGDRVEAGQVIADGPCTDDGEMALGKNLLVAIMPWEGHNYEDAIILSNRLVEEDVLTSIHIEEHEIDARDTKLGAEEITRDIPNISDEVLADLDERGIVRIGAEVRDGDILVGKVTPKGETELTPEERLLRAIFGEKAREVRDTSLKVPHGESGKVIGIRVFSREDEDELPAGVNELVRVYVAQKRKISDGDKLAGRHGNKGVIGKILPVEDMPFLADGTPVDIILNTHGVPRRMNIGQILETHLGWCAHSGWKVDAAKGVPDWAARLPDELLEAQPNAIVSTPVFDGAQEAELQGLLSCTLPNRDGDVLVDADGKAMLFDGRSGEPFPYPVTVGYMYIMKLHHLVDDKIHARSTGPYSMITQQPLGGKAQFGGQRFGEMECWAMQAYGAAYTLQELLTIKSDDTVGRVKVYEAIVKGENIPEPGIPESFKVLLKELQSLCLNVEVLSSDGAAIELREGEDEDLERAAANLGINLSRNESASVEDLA
Chain of RNAP-SigA holoenzyme (P9WGY7 whole entry, chain 3 of 4): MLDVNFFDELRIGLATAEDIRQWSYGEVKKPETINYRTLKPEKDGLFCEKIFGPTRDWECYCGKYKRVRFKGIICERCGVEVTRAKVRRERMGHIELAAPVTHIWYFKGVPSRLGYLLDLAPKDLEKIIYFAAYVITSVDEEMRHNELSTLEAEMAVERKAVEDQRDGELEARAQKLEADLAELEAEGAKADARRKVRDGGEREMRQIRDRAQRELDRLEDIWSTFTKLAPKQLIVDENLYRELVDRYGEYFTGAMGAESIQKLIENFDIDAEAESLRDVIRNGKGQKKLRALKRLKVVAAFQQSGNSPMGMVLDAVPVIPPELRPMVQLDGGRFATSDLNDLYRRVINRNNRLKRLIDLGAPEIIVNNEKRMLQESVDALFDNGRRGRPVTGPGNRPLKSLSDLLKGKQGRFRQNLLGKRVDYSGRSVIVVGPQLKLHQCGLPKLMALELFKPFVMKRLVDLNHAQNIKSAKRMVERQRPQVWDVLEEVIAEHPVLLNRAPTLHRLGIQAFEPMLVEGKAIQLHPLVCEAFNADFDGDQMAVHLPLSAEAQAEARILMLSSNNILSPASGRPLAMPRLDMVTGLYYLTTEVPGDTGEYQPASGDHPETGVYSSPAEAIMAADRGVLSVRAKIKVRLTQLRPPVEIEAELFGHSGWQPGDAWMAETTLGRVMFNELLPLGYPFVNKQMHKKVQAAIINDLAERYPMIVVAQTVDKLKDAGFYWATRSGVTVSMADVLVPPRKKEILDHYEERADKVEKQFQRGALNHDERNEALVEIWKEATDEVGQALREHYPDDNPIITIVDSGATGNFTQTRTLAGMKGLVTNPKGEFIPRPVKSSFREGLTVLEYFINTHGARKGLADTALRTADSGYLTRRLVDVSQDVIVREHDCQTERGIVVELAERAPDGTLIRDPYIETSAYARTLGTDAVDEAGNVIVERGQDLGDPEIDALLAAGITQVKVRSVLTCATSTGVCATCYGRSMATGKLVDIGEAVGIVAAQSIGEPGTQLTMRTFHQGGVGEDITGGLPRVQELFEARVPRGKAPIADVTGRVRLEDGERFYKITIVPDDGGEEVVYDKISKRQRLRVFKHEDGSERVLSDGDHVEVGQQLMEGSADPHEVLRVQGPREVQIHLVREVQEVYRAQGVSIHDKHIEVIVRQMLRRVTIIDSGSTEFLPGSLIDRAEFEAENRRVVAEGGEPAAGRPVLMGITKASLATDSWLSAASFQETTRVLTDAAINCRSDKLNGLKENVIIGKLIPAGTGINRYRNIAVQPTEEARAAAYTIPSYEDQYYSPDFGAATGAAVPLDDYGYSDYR
Chain of RNAP-SigA holoenzyme (P9WGI1 whole entry, chain 4 of 4): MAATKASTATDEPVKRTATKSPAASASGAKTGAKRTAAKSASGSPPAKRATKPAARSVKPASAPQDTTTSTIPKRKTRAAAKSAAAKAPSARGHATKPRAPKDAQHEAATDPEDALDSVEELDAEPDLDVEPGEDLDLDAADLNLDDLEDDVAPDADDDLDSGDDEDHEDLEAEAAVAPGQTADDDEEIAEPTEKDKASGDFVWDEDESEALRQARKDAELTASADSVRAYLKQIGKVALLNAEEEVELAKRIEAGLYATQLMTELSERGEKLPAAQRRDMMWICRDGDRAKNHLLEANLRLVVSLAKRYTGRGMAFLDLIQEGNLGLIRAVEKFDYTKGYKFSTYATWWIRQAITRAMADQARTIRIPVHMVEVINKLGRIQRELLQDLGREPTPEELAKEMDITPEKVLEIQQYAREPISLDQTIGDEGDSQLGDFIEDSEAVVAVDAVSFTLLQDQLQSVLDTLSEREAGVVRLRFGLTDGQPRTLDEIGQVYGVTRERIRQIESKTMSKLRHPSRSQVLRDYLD

B1: rrnAP3/ADPr (non-template strand modified) (dsDNA)
DNA 1: CTATGGATGACCGAACCTGGTCTTGACTCCATTGCCGGATTTGTATTAGACTGGCAGGGTCGCCCCGAAGCGGGCGGAAACAAGCAAGCGTGTTGTTTGAGAACTC
DNA 2: GAGTTCTCAAACAACACGCTTGCTTGTTTCCGCCCGCTTCGGGGCGACCCTGCCAGTCTAATACAAATCCGGCAATGGAGTCAAGACCAGGTTCGGTCATCCATAG
modifications: ADP-ribosyl-thymidine on strand 1 (non-template; DarT; positions inferred near -10 in Fig 3A)
Question: Does B1 bind?
Answer: Result: binds
